Reference: patent US20080182978A1, “ANTI-NGF ANTIBODIES AND METHODS USING SAME” (RINAT NEUROSCIENCE CORP, priority 2002, published 2008)

Legend:
human NGF = human NGF (Homo sapiens, UniProt P01138); assay: BIAcore screening assay of Fab library clones (koff); type: binding; conditions: Table 8: CDR L3 H3 combination mutations, H19-L129 template (H1H2L1L2 matured)
How it was run: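 Fab library clones expressed in E. coli (1 mM IPTG, 5 h, 30° C), lysed by freeze-thaw in HBS-EP; lysates injected at 50 μl/min for 2 min over CM5-immobilised human NGF (500-600 RU). Single-exponential koff fitted from 10-15 min dissociation; Fab presence checked via anti-penta-His channel.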

[1] = system: adjuvant-induced arthritis; assay: Dose response of E3 on vocalization intensity in arthritic rats (Example 9); type: in vivo, rat
Method: The ability of E3 to produce reduction in pain in arthritic rats was further investigated by examining the dose response relationship between E3 administration and pain reduction. Rats were treated with adjuvant to induce arthritis as described above. Ten rats not injected with adjuvant were used as non-arthritic controls. Fourteen days after adjuvant injection, animals were qualified into the study based on the criteria stated above, randomized into eight groups of ten rats and tested for the intensity of their vocalization response. They were then dosed on day 14 with saline, or 0.003 mg/kg, 0.01 mg/kg, 0.03 mg/kg, 0.1 mg/kg, 0.3 mg/kg, 1 mg/kg or 5 mg/kg of E3 antibody as described above. Animals were tested for their vocalization response on days 16, 18, 20, and 24. Animals were redosed with saline or the same dose of E3 on day 18 after the vocalization testing. Animals were also weighed each day, starting at day 14. Thus, animals were dosed twice with a given dose of antibody or saline on days 14 and 18, and assessed for pain five times, on days 14, 16, 18, 20 and 24. Data are shown in Tables 20-22 and in FIGS. 20-22. The effect of treating animals with various doses of anti-NGF antibody E3 on pain induced vocalization (data shown in Table 20) was statistically analyzed by using two-way ANOVA to compare the results obtained pairwise between arthritic animals treated with vehicle with those treated with a given dose of antibody E3. […] Even at the lowest dose tested (0.003 mg/kg of E3), the difference in vocalization was significant (p<0.0001).

Sequence of human NGF (P01138 122-241): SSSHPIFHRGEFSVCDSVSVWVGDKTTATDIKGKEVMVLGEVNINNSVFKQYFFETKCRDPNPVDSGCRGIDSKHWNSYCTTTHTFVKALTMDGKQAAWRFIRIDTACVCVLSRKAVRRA

koff (human NGF): 1.2e-05 s⁻¹
B1: E3: humanized, affinity matured anti-NGF antagonist antibody; variable regions SEQ ID NO:1 and 2; human IgG2a (A330P331 to S330S331), kappa (antibody, V domains shown)
VH: QVQLQESGPGLVKPSETLSLTCTVSGFSLIGYDLNWIRQPPGKGLEWIGIIWGDGTTDYNSAVKSRVTISKDTSKNQFSLKLSSVTAADTAVYYCARGGYWYATSYYFDYWGQGTLVTVS
VL: DIQMTQSPSSLSASVGDRVTITCRASQSISNNLNWYQQKPGKAPKLLIYYTSRFHSGVPSRFSGSGSGTDFTFTISSLQPEDIATYYCQQEHTLPYTFGQGTKLEIKRT
modifications: human IgG2a constant (A330S/P331S) and kappa constant missing
effect on pain induced vocalization vs vehicle (two-way ANOVA) ([1]; 0.003 to 5 mg/kg, p<0.0001): highly significant effect at all levels of E3 tested | Vocalization intensity ([1]; E3 0.003 mg/kg on days 14+18, day 14): 981.75 mV | Vocalization intensity ([1]; E3 0.003 mg/kg on days 14+18, day 16): 825.60 mV | Vocalization intensity ([1]; E3 0.003 mg/kg on days 14+18, day 18): 427.43 mV | Vocalization intensity ([1]; E3 0.003 mg/kg on days 14+18, day 20): 448.00 mV | Vocalization intensity ([1]; E3 0.003 mg/kg on days 14+18, day 24): 724.50 mV | Vocalization intensity ([1]; E3 0.01 mg/kg on days 14+18, day 14): 1007.28 mV | Vocalization intensity ([1]; E3 0.01 mg/kg on days 14+18, day 16): 576.88 mV | Vocalization intensity ([1]; E3 0.01 mg/kg on days 14+18, day 18): 334.45 mV | Vocalization intensity ([1]; E3 0.01 mg/kg on days 14+18, day 20): 313.13 mV | Vocalization intensity ([1]; E3 0.01 mg/kg on days 14+18, day 24): 596.38 mV | Vocalization intensity ([1]; E3 0.03 mg/kg on days 14+18, day 14): 963.18 mV | Vocalization intensity ([1]; E3 0.03 mg/kg on days 14+18, day 16): 448.43 mV | Vocalization intensity ([1]; E3 0.03 mg/kg on days 14+18, day 18): 292.52 mV | Vocalization intensity ([1]; E3 0.03 mg/kg on days 14+18, day 20): 209.48 mV | Vocalization intensity ([1]; E3 0.03 mg/kg on days 14+18, day 24): 513.60 mV | Vocalization intensity ([1]; E3 0.1 mg/kg on days 14+18, day 14): 1159.30 mV | Vocalization intensity ([1]; E3 0.1 mg/kg on days 14+18, day 16): 283.71 mV | Vocalization intensity ([1]; E3 0.1 mg/kg on days 14+18, day 18): 262.96 mV | Vocalization intensity ([1]; E3 0.1 mg/kg on days 14+18, day 20): 79.74 mV | Vocalization intensity ([1]; E3 0.1 mg/kg on days 14+18, day 24): 432.45 mV | Vocalization intensity ([1]; E3 0.3 mg/kg on days 14+18, day 14): 1191.58 mV | Vocalization intensity ([1]; E3 0.3 mg/kg on days 14+18, day 16): 151.85 mV | Vocalization intensity ([1]; E3 0.3 mg/kg on days 14+18, day 18): 194.19 mV | Vocalization intensity ([1]; E3 0.3 mg/kg on days 14+18, day 20): 66.27 mV | Vocalization intensity ([1]; E3 0.3 mg/kg on days 14+18, day 24): 176.32 mV | Vocalization intensity ([1]; E3 1.0 mg/kg on days 14+18, day 14): 1067.00 mV | Vocalization intensity ([1]; E3 1.0 mg/kg on days 14+18, day 16): 98.62 mV | Vocalization intensity ([1]; E3 1.0 mg/kg on days 14+18, day 18): 174.13 mV | Vocalization intensity ([1]; E3 1.0 mg/kg on days 14+18, day 20): 71.23 mV | Vocalization intensity ([1]; E3 1.0 mg/kg on days 14+18, day 24): 19.21 mV | fall of vocalization intensity ([1]; E3 1 mg/kg, within two days (earliest time point tested)): 90% | Vocalization intensity ([1]; E3 5.0 mg/kg on days 14+18, day 14): 896.25 mV | Vocalization intensity ([1]; E3 5.0 mg/kg on days 14+18, day 16): 79.18 mV | Vocalization intensity ([1]; E3 5.0 mg/kg on days 14+18, day 18): 200.42 mV | Vocalization intensity ([1]; E3 5.0 mg/kg on days 14+18, day 20): 63.57 mV | Vocalization intensity ([1]; E3 5.0 mg/kg on days 14+18, day 24): 12.35 mV | pain relief at lowest dose ([1]; doses as low as 0.003 mg/kg): at least partial pain relief
